Assay [1] addresses SARS-CoV-2 RBD extracellular domain expressed with a C-terminal mouse IgG2a (SARS-COV-2 RBD-mFc) (SARS-CoV-2).
Assay [2] addresses SARS-COV-2 RBD extracellular domain expressed with a C-terminal mouse IgG2a (SARS-COV-2 RBD-mFc) (SARS-CoV-2). Briefly: SPR, captured mAb, RBD-mFc in solution, 37 C.

B1: mAb10923 (antibody, V domains shown)
VH: QVQLVQSGAEVKKPGASVKVSCKASGYTFINYYIHWVRQAPGQGLEWMGWINPNSGGTNYAQKFQGRVTMTRDTSISTAYMELSRLRSDDTAVYYCAIITIFGVVTWFDPWGQGTLVTVSS
VL: not shown
A word on the Kd: it is the equilibrium constant for the complex coming apart. The low end stands for a tighter complex, the high end for a looser complex. By koff is commonly meant the first-order rate constant of dissociation. Higher therefore signals fast dissociation. Usually kon stands for the second-order rate constant of association. In assay [1], B1 came in with a Kd of 0.0435 nM, a koff of 2.83e-05 s⁻¹, a kon of 651000 M⁻¹ s⁻¹ and a t1/2 of 6.79 h.

B2: mAb10930 (antibody, V domains shown)
VH: EVQLVESGGGLVQPGRSLRLSCAASGFTFDDYAMYWVRQAPGKGLEWVSGISWNSGSIGYADSVKGRFTISRDNAKNSLYLQMNSLRAADTALYYCAKDKDWNSRGYYYYGMDVWGQGTTVTVSS
VL: not shown
For B2, in assay [1], the Kd is not above 0.0431 nM, the dissociation rate constant (koff) is not above 1e-05 s⁻¹, the kon came to 232000 M⁻¹ s⁻¹ and the t1/2 was not below 19.2 h.

B3: mAb10920 (antibody, V domains shown)
VH: QVQLVESGGGVVQPGRSLRLSCAASGFTFSYYGMHWVRQAPGKGLEWVAVIWYDGSNKFYADSVKGRFTISRDNSKNTLYLQMNSLRAEDTAVYYCAAARPGYYYGMDVWGQGTTVTVSS
VL: DIQMTQSPSSLSASVGDRVTITCRASQGISNYLAWFQQKPGKAPNSLIYAASSLQRGVPSKFSGSGSGTDFTLTISSLQPEDFATYYCQQYNSYPRTFGQGTKVEIKR
Turning to B3, in assay [1], binding was put at a Kd of 0.416 nM and the t1/2 stood at 0.658 h.

B4: mAb11004 (antibody, V domains shown)
VH: QVQLVESGGGVVQPGRSLRLSCVASGFTFSIYGMDWVRQAPGKGLEWVAVISYDGSNKYYADSVKGRFTISRDNSKNTLYLQMNSLRPEDTAVYYCAKDREAAADAFDIWGQGTMVTVSS
VL: DIQMTQSPSSVSASVGDRVTITCRASQGISSWLAWYQQKPGKAPKLLIYAASSLHSGVPSRFSGSGSGTDFTLTISSLQPEDFATYYCQQANSFRLTFGGGTKVEIKR
The term t½ denotes how long it takes for the measured level to halve. Low readings indicate rapid decline, high ones slow decline. Turning to B4, in assay [2], binding was characterised by a dissociation constant (Kd) of 0.117 nM, the koff was 0.000118 s⁻¹, the on-rate constant (kon) is 1.01e+06 M⁻¹ s⁻¹ and the “t½” value stood at 1.63 h.

B5: mAb11010 (antibody, V domains shown)
VH: QVQLVESGGGVVQPGRSLRLSCAASGFTFSSYGMHWVRQAPGKGLEWVAVISYDGSYKYYADSVKGRFTISRDNSKNTLYLQMNSLRAEDTAVYYCAIDGGTVTTIFDYWGQGTLVTVSS
VL: not shown
Turning to B5, in assay [2], the Kd is 0.0505 nM and the “t½” value was 2.4 h.

B6: mAb10982 (antibody, V domains shown)
VH: EVQLVESGGGLVQPGGSLRLSCAASGLTVSSNYMSWVRQAPGKGLEWVSVIYSGGTTYYADSVKGRFTISRHNSKNTLSLQMNSLRAEDTAVYYCARGEGANYYGMDVWGQGTTVTVSS
VL: QSVLTQPPSVSGAPGQRVTISCTGSSSNIGTGYDVHWYQQLPGTAPKLLIYGNSNRPSGVPDRFSGSKSGTSASLAITGLQAEDEADYYCQSYDSSLSGYVVFGGGTKLTVLG
In the case of B6, in assay [1], the Kd was determined as 0.0544 nM, the koff worked out at 1.69e-05 s⁻¹, the kon was found to be 310000 M⁻¹ s⁻¹ and the t1/2 came out at 11.4 h.

B7: mAb10986 (antibody, V domains shown)
VH: EVQLVESGGGLVQPGGSLRLSCAASEFTVSSNYMSWVRQAPGKGLEWVSVIYSGGSTFYADSVKGRFTISRDNSKNTLYLQMNSLRAEDTAVYYCARALPYGDLHFDYWGQGTLVTVSS
VL: QSVLTQPPSVSGAPGQRVTISCTGSSSNIGTGYDVHWYQQLPGTAPKLLIYGNTNRPSGVPDRFSGSKSGTSASLAITGLQAEDEADYYCQSYDSSLSDSYVFGTGTKVTVLG
As to B7, in assay [1], the Kd was not above 0.0158 nM and the t1/2 was not below 19.2 h.

B8: mAb10985 (antibody, V domains shown)
VH: EVQLVESGGGLVQPGRSLRLSCAASGFTFDDYAMHWVRQAPGKGLEWVSGISWNRGSIGYADSVKGRFTISRDNAKNSLYLQMSSLRAEDTALYYCAKDGERWDSVVVPSARNGMDVWGQGTTVTVSS
VL: QSVLTQPPSVSGAPGQRVTISCTGSSSNIGAGYDVHWYQQLPGTAPKLLIYGNSNRPSGVPDRFSGSKSGTSASLAITGLQAEDEADYYCQSYDSSLSGSYVFGTGTKVTVLG
In assay [1], B8 returned a Kd of 0.0117 nM and a t1/2 of 15.2 h.

B9: mAb10939 (antibody, V domains shown)
VH: EVQLVESGGGLVQPGGSLRLSCAASGLTVSSNYMNWVRQVPGKGLEWVSVIYSGGSKFYVDSVKGRFTISRHNSKNTLYLQMNSLRPEDTAVYYCTRDAQYYGMDVWGQGTTVTVSS
VL: DIQMTQSPSSLSASVGDRVTITCRASQSISTYLHWYQQKPGEAPKLLIYAASSLQSGVPSRFSGSGSGTDFTLTISSLQPEDFATYYCQQSYSTPPEIFGQGTKLEIKR
Take B9: in assay [1], the Kd was 0.0387 nM, the koff stood at 1.15e-05 s⁻¹, the kon was 299000 M⁻¹ s⁻¹ and the t1/2 came out at 16.7 h.

B10: mAb10932 (antibody, V domains shown)
VH: EVQLVESGGGLVQSGGSLRLSCAASGLTVSSNYMSWVRQAPGKGLEWVSVIYSGGSTFYSDSVKGRFTISRHNSKNTLYLQMNSLRAEDTAVYYCARARGDAFDIWGQGTMVTVSS
VL: not shown
In assay [1], B10 yielded a Kd not above 0.0413 nM, a koff not above 1e-05 s⁻¹, a kon of 242000 M⁻¹ s⁻¹ and a t1/2 not below 19.2 h.

B11: mAb10936 (antibody, V domains shown)
VH: QVQLVESGGGVVQPGRSLRLSCAASGFTFRNYGMHWVRQAPGKGLEWVSVIWYDGSNRYYADSVKGRFTISRDTSKNTLYLQMNSLRAEDTAVYYCARDPPITGTTGGDAFDIWGQGTMVTVSS
VL: not shown
In assay [1], B11 showed a Kd not above 0.0153 nM, a koff not above 1e-05 s⁻¹, a kon of 652000 M⁻¹ s⁻¹ and a t1/2 not below 19.2 h.

B12: mAb10984 (antibody, V domains shown)
VH: EVQLVESGGGLVQPGGSLRLSCAASGLTVNRNYMSWVRQAPGKGLEWVSLIYSGGSTYYADSVKGRFTISRDNSKNTLYLQMNSLRLEDTAVYYCARGELGIPYGMDVWGQGTTVTVSS
VL: QSVLTQPPSVSAAPGQKVTISCSGSSSNIGNNYVSWYQQLPGTAPKLLIYDNNKRPSGIPDRFSGSKSGTSATLGITGLQTGDEADYYCGTWDSSLSAGVFGGGTKLTVLG
For B12, in assay [1], the Kd is not above 0.0249 nM and the t1/2 was not below 19.2 h.

B13: mAb10934 (antibody, V domains shown)
VH: not shown
VL: DIQMTQSPSSLSASVGDRVTITCQASQDIWNYINWYQQKPGKAPKLLIYDASNLKTGVPSRFSGSGSGTDFTFTISSLQPEDIATYYCQQHDDLPPTFGQGTKVEIKR
In assay [1], B13 had a Kd of 0.0832 nM and a t1/2 of 1.64 h.

B14: mAb10938 (antibody, V domains shown)
VH: EVQLVESGGGLVQPGGSLRLSCAVSGFTVSSNYMSWVRQAPGKGLEWVSLIYSGGSTFYADSVKGRFTISRHNSKNTLYLQMNSLRAEDTAVYYCAREGGYSYDYNYWGQGTLVTVSS
VL: DIQMTQSPSSLSASVGDRVTITCQASQDIRNYLNWYQQKPGKAPKLLIYDASNLETGVPSRFSGIGSGTDFTFTISSLQPEDIATYYCQQYDNLPITFGQGTRLEIKR
In assay [1], B14 registered a Kd not above 0.0322 nM and a t1/2 not below 19.2 h.

B15: mAb10935 (antibody, V domains shown)
VH: EVQLVESGGGLVQPGGSLRLSCAASGFTVSSNYMSWVRQAPGKGLEWVSLIYSGGSTYYADSVKGRFTISRHNSKNTLYLQMNSLRSEDTAVYYCARVPLGDYYYGMDVWGQGTTVTVSS
VL: DIQMTQSPSSLSASVGDRVTITCQASQDINKYLNWYQQKPGKAPKLLIYDASNLETGVPSRFSGSGSGTDFTFTISSLQPEDIATYYCQQSDNLPLTFGGGTKVEIKR
In assay [1], B15 yielded a Kd not above 0.0261 nM, an off-rate constant (koff) not above 1e-05 s⁻¹, a kon of 383000 M⁻¹ s⁻¹ and a t1/2 not below 19.2 h.

B16: mAb10913 (antibody, V domains shown)
VH: EVQLVESGGGLVQPGGSLRLSCAASGFTFRNYEMNWVRQAPGKGLEWVSYITSSGSTMYYADSVKGRFTISRDNAKNSLYLQMNSLRAEDTAVYYCARDGFYYYYAMDVWGQGTTVTVSS
VL: QSVLTQPPSVSAAPGQKVTISCSGSSSNIGNNYVSWYQQLPGTAPKLLIYDNNKRPSGIPDRFSGSKSGTSATLGITGLQTGDEADYYCGTWDSSLSVGRVFGTGTKVTVLG
Consider B16, for which, in assay [1], binding was characterised by a dissociation constant (Kd) of 0.244 nM, the koff came out at 0.000152 s⁻¹, the kon is 623000 M⁻¹ s⁻¹ and the t1/2 amounted to 1.27 h.

B17: mAb10937 (antibody, V domains shown)
VH: QITLKESGPTLVKPTQTLTLTCTFSGFSLSTNVVGVGWIRQPPGKALEWLALIYWNDDKRYSPSLKSRLTITKDTSKNQVVLTMTNMDPVDTATYYCAHGPTGDYFDYWGQGTLVTVSS
VL: not shown
In assay [1], B17 gave an equilibrium dissociation constant (Kd) of 0.114 nM, a koff of 7.28e-05 s⁻¹, a kon of 639000 M⁻¹ s⁻¹ and a t1/2 of 2.64 h.

B18: mAb10921 (antibody, V domains shown)
VH: EVQLVESGGGLVQPGGSLRLSCAASGITVSSNYMSWVRQAPGKGLEWVSVIYSGGSTFYADSVKGRFTISRHNSKNTLYLQMNSLRAEDTAVYYCARERNFDAFDIWGQGTMVTVSS
VL: DIQMTQSPSSVSASVGDRVTITCRASQGISSWLAWYQQKPGKAPKLLIYAASSLQSGVPSRFSGSGSGTDFTLTISSLQPEDFATYYCQQANSFPLFTFGPGTKVDIKR
In assay [1], B18 displayed a Kd not above 0.0375 nM, a koff not above 1e-05 s⁻¹, a kon of 266000 M⁻¹ s⁻¹ and a t1/2 not below 19.2 h.

B19: mAb11006 (antibody, V domains shown)
VH: EVQLVESGGGLVQPGGSLRLSCAASGFIVSRNYMSWVRQAPGKGLEWVSVIYSGGSTFYADSVKGRFTISRHNSKNTLYLQMNSLKAEDTAVYYCARELRGYFDYWGQGTLVTVSS
VL: DIQLTQSPSFLSASVGDRVTITCWASQGISSYLAWYQQKPGKAPKLLIYAASTLQSGVPSRFSGSGSGTEFTLTISSLQPEDFATYYCQLLNSYPYTFGQGTKLEIKR
In the case of B19, in assay [2], binding was characterised by a dissociation constant (Kd) of 0.197 nM and the “t½” value turned out to be 2.52 h.

B20: mAb11008 (antibody, V domains shown)
VH: EVQLVESGGGLVQPGGSLRLSCAASGFTVSSNYMTWVRQAPGKGLEWVSVIYSGGSTFYADSVKGRFTISRHNSENTLYLQMNSLRAEDTAVYYCARDLAAAGTDYWGQGALVTVSS
VL: DIQLTQSPSFLSASVGDRVTITCWASQGISSYLAWYQQKPGKAPKLLIYAASTLQSGVPSRFSGSGSGTEFTLTISSLQPDDFATYYCQHLNSYLYTFGQGTKLEIKR
In the case of B20, in assay [2], the Kd turned out to be 0.872 nM, the koff came out at 0.000405 s⁻¹, the kon is 464000 M⁻¹ s⁻¹ and the “t½” value stood at 0.475 h.

The values above are taken from US20240043504A1 (published 2024).
